The values that follow come from publication PMC4921775, “Transient Fcho1/2⋅Eps15/R⋅AP-2 Nanoclusters Prime the AP-2 Clathrin Adaptor for Cargo Binding” (Developmental Cell, 2016).

B1: FCHO1 μHD (purified, not on beads) [human] / EPS15 616–638 peptide [human] (parent complex)
chain 1: HGVSRGPSPVVLGSQDALPIATAFTEYVHAYFRGHSPSCLARVTGELTMTFPAGIVRVFSGTPPPPVLSFRLVHTTAIEHFQPNADLLFSDPSQSDPETKDFWLNMAALTEALQRQAEQNPTASYYNVVLLRYQFSRPGPQSVPLQLSAHWQCGATLTQVSVEYGYRPGATAVPTPLTNVQILLPVGEPVTNVRLQPAATWNLEEKRLTWRLPDVSEAGGSGRLSASWEPLSGPSTPSPVAAQFTSEGTTLSGVDLELVGSGYRMSLVKRRFATGMYLVSC
chain 2: NLDFFQSDPFVGSDPFKDDPFGK

For orientation: Kd means the constant that tells how readily two partners part at equilibrium.

This experiment covers variants of B1. The experiment is described as follows: ITC; parent: 2.7e+03 nM. A general note: In ITC the heat of successive injections is recorded.
As for chain 1 HGVSRGPSPVVLGSQDALPIATAFTEYVHAYFRGHSPSCLARVTGELTMTFPAGIVRVFSGTPPPPVLSFRLVHTTAIEHFQPNADLLFSDPSQSDPETKDFWLNMAALTEALQRQAEQNPTASYYNVVLLRYQFSRPGPQSVPLQLSAHWQCGATLTQVSVEYGYRPGATAVPTPLTNVQILLPVGEPVTNVRLQPAATWNLEEKRLTWRLPDVSEAGGSGRLSASWEPLSGPSTPSPVAAQFTSEGTTLSGVDLELVGSGYAMGLVKRRFATGMYLVSC [chain 1 R264A, chain 1 S266G], the equilibrium dissociation constant (Kd) stood at 77.4 µM.
To chain 1 HGVSRGPSPVVLGSQDALPIATAFTEYVHAYFRGHSPSCLARVTGELTMTFPAGIVRVFSGTPPPPVLSFRLVHTTAIEHFQPNADLLFSDPSQSDPETKDFWLNMAALTEALQRQAEQNPTADYYNVVLLRYQFSRPGPQSVPLQLSAHWQCGATLTQVSVEYGYRPGATAVPTPLTNVQILLPVGEPVTNVRLQPAATWNLEEKRLTWRLPDVSEAGGSGRLSASWEPLSGPSTPSPVAAQFTSEGTTLSGVDLELVGSGYRMSLVKRRFATGMYLVSC [chain 1 S124D] belongs 9.1 µM; to chain 1 HGVSRGPSPVVLGSQDALPIATAFTEYVHAYFRGHSPSCLARVTGELTMTFPAGIVRVFSGTPPPPVLSFRLVHTTAIEHFQPNADLLFSDPSQSDPETKDFWLNMAALTEALQRQAEQNPTASYYNVVLLRYQFSRPGPQSVPLQLSAHWQCGATLTQVSVEYGYRPGATAVPTPLTNVQILLPVGEPVTNVRLQPAATWNLEEKRLTWRLPDVSEAGGSGRLSASWEPLSGPSTPSPVAAQFTSEGTTLSGVDLELVGSGYMMSLVKRRFATGMYLVSC [chain 1 R264M], 19.6 µM.
